In publication PMC9438503, “The Haemophilus influenzae HipBA toxin–antitoxin system adopts an unusual three-component regulatory mechanism” (IUCrJ, 2022):

T1: HipA^C, C-terminal component of the split HipA toxin from Haemophilus influenzae (HI0665), His-tagged (H. influenzae (KW20 strain, ATCC 51907), UniProt P44033 1-343)
T1 construct: also called His-tagged HipA^C; not shown: His6, N-terminal, kept
T1 sequence: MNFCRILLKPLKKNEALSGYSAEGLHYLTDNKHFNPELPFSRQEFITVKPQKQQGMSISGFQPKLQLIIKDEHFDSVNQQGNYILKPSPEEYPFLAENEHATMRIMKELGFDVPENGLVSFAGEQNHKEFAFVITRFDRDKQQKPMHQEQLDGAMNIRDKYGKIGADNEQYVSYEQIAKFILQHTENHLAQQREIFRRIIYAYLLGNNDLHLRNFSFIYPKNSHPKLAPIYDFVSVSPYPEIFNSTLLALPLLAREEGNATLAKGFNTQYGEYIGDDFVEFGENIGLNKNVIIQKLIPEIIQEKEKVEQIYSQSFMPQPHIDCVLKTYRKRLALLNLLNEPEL


Tests used:
[1] = biological target: HipB antitoxin from Haemophilus influenzae (HI0666.1) (H. influenzae (KW20 strain, ATCC 51907)) (UniProt P44034); experiment: cross-linking; chemical cross-linking of H. influenzae HipB with DMA and DMS cross-linkers, SDS-PAGE
[2] = biological target: T1, HipA^C, C-terminal component of the …; experiment: pull-down; conditions: partners not purified

| Molecule | stoichiometry N [1] | binding result [2] |
| --- | --- | --- |
| HipB antitoxin from Haemophilus influenzae (HI0666.1) (from UniProt P44034 1-106) (natural protein) | 2 |  |
| HipA^N, N-terminal component of the split HipA toxin from Haemophilus influenzae (HI0666) (natural protein) MRDLVRSGKVFLYGEFIGLLREDHRGFHFSYNPDYQGIPLSLSFPIEQSPFHSDTLFPYFASLVPEGWLKHKYALHQRIDESDMFRFLLNNGENMLGAVQIQEEKQ |  | binds |
